Laboratory results published in patent publication US20170119830A1 (REGENTS OF THE UNIVERSITY OF MINNESOTA, published 2017).
Positions count from the first letter of the chain named.

Experiments:
[1] = target: mesothelin (MSLN) (UniProt Q13421); assay: 4 C cell binding assay on Panc-1 (MSLN strongly-positive) cells, E4 qPCR
[2] = target: T1, AdML-5WT, control adenovirus with the native (wild type) Ad5 fiber (adenovirus type 5, UniProt P11818 1-581); assay: cell binding assay, 10 vp/cell, 2 h, 4 C, E4 qPCR (FIG. 26)
T1 construct: The whole virion stood in the assays; also called AdML-WT; wild type fiber virus
T1 sequence: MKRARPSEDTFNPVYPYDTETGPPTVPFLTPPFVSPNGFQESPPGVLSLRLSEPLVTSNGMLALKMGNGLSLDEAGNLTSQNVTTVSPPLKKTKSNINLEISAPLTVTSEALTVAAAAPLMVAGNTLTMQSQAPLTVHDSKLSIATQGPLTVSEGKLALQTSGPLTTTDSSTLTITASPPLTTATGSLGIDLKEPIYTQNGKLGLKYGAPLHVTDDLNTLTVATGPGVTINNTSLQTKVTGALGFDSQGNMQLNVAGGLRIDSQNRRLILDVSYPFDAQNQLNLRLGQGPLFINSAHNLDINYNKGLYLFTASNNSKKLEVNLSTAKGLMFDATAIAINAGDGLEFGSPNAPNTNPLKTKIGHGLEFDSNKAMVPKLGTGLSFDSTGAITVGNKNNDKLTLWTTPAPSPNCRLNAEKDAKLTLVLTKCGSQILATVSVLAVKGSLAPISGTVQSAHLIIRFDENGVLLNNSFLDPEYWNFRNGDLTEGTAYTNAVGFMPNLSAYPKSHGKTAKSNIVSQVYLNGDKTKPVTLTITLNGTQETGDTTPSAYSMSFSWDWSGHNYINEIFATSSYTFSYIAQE

[3] = target: T2, CD133 (Prominin-1) (UniProt O43490 20-865); assay: cell-based or functional assay
T2 sequence: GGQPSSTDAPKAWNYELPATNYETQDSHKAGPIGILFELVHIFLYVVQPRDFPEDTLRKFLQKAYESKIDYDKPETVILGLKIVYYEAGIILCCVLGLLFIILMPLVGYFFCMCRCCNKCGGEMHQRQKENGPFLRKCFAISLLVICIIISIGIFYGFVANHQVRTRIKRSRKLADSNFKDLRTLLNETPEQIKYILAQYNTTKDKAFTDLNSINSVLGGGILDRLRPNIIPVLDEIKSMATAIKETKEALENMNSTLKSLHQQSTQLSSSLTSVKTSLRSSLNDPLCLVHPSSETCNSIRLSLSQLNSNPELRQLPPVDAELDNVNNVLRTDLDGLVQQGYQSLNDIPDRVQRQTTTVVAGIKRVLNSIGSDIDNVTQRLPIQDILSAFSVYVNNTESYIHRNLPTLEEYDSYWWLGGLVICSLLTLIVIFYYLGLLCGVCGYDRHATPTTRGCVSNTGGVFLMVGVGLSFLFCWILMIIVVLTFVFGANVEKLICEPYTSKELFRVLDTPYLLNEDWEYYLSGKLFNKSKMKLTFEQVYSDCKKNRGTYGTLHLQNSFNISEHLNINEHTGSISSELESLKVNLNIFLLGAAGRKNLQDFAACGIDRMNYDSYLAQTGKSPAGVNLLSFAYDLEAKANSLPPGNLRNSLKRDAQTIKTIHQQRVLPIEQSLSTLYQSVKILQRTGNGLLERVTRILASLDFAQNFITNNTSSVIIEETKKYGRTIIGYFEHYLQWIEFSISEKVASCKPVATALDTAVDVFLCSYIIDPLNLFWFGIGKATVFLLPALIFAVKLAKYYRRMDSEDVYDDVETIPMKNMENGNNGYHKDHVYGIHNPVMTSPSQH

[4] = target: T2, CD133 (Prominin-1); assay: cell binding assay with and without anti-CD133 antibody (FIG. 17)

Question: How did the fold binding against AdMG553 [1] turn out when “AdML-VTIN, adenovirus with the VTINRSA (SEQ ID NO:12) targeting motif in the AB-loop of the fiber knob (from UniProt P11818 1-410; P11818 418-581)” was run?
Answer: 2 fold

Question: What about the fold binding against AdML-5WT [1] of the same molecule?
Answer: 5 fold

B1: Coxsackie adenovirus receptor (CAR) (receptor)
chain: LSITTPEEMIEKAKGETAYLPCKFTLSPEDQGPLDIEWLISPADNQKVDQVIILYSGDKIYDDYYPDLKGRVHFTSNDLKSGDASINVTNLQLSDIGTYQCKVKKAPGVANKKIHLVVLVKPSGARCYVDGSEEIGSDFKIKCEPKEGSLPLQYEWQKLSDSQKMPTSWLAEMTSSVISVKNASSEYSGTYSCTVRNRVGSDQCLLRLNVVPPSNKAGLIAGAIIGTLLALALIGLIIFCCRKKRREEKYEKEVHHDIREDVPPPKSRTSTARSYIGSNHSSLGSMSPSNMEGYSKTQYNQVPSEDFERTPQSPTLPPAKVAAPNLSRMGAIPVMIPAQSKDGSIV
notes: whole, on cells; the cell lines are human; also called Ad5 receptor; natural Ad receptor
Question: Does B1 bind [2]?
Answer: binds

B2: AdML-TYML, adenovirus with the TYMLSRN (SEQ ID NO:106) targeting motif in the AB-loop of the fiber knob (other)
chain: T1 sequence with C411T, R412Y, L413M, N414L, A415S, E416R, K417N
notes: also called TYML virus; Ad-TYML
Question: Which “viral copy number after infection (E4 qPCR)” value [3] does the source give for B2 here?
Answer: > 5 fold

Question: What about the “fold binding, CD133(+) against CD133(-) 293 cells” value [4] of the same molecule?
Answer: 4 fold
